Article PMC9482650, “Quantitative fragmentomics allow affinity mapping of interactomes” (Nature Communications, 2022)

T1: SYNJ2BP, P57105
T1 sequence (P57105 8-110, limits assumed, looked up): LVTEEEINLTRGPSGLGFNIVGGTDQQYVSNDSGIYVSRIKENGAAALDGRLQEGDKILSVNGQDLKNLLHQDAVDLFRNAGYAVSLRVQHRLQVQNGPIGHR

T2: MPP7, Q5T2T1
T2 sequence (Q5T2T1 134-230, limits assumed, looked up): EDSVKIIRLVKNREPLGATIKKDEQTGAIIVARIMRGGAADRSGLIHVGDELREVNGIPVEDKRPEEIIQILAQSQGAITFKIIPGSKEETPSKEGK

T3: MPDZ_5, O75970
T3 sequence (O75970 695-796, limits assumed, looked up): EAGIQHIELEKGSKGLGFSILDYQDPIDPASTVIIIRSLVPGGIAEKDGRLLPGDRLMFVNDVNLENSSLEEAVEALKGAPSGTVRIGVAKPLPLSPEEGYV

T4: LRRC7, Q96NW7
T4 sequence (Q96NW7 1440-1537, limits assumed, looked up): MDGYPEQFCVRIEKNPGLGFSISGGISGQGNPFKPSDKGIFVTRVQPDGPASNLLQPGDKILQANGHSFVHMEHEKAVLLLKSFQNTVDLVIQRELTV

T5: NHERF3_3, Q5T2W1
T5 sequence (Q5T2W1 238-333, limits assumed, looked up): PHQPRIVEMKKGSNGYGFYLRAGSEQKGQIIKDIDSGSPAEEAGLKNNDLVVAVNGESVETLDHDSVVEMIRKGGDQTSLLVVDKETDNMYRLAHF

T6: PCLO, Q9Y6V0
T6 sequence (Q9Y6V0 4491-4600, limits assumed, looked up): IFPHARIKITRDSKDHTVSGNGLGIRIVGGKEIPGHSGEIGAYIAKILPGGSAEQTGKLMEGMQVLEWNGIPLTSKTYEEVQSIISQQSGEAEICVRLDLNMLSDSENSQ

T7: NHERF3_4, Q5T2W1
T7 sequence (Q5T2W1 373-468, limits assumed, looked up): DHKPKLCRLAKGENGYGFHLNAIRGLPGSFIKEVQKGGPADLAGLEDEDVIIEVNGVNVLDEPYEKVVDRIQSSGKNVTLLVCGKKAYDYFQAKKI

T8: TX1BP3, O14907
T8 sequence (O14907 10-122, limits assumed, looked up): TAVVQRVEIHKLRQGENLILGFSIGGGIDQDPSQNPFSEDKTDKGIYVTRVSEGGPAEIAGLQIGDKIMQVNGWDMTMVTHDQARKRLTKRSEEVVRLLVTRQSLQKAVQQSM

T9: SNTA1, Q13424
T9 sequence (Q13424 82-180, limits assumed, looked up): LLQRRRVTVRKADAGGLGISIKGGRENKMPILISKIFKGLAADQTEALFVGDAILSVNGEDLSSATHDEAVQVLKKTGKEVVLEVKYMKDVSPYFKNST

T10: GRIP1_3, Q9Y3R0
T10 sequence (Q9Y3R0 247-346, limits assumed, looked up): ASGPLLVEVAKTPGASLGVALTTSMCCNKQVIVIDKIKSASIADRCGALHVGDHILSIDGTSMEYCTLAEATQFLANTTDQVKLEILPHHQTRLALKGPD

T11: GRIP1_7, Q9Y3R0
T11 sequence (Q9Y3R0 999-1096, limits assumed, looked up): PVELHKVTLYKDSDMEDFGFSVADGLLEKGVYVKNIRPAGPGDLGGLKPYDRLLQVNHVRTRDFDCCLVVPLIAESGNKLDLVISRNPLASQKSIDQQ

T12: RHPN1, Q8TCX5
T12 sequence (Q8TCX5 508-602, limits assumed, looked up): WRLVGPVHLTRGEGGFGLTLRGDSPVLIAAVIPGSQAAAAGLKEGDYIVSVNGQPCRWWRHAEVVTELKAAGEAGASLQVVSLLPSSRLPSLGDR


Each binder was assayed against T1, SYNJ2BP, P57105 (assay: holdup assay). Conditions: plain residues with an end cap or a label only (N-terminal biotin on a linker: ado-ado).
Design: key: below the threshold = too weak to quantify, mostly under pKd 3.1 to 4

| Binder | pKd |
| --- | --- |
| HSGYRLNDYV [CLDN14, O95500] | 3.63 |
| TACCHSETVV [TGFA, P01135] | 4.55 |

Each binder was assayed against GRID2IP_2, A4D2P6 (assay: holdup assay). Conditions: plain residues with an end cap or a label only (N-terminal biotin on a linker: ado-ado).
Design: key: below the threshold = too weak to quantify, mostly under pKd 3.1 to 4

Chain of GRID2IP_2, A4D2P6 (A4D2P6 272-370): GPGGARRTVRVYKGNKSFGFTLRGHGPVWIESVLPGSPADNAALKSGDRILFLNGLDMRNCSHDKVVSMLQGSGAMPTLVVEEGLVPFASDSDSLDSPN

| Binder | pKd |
| --- | --- |
| HSGYRLNDYV [CLDN14, O95500] | 3.63 |
| TACCHSETVV [TGFA, P01135] | below the threshold |

What follows are binders tested against DLG5_1, Q8TDM6 (assay: holdup assay). Conditions: plain residues with an end cap or a label only (N-terminal biotin on a linker: ado-ado).
Design: key: below the threshold = too weak to quantify, mostly under pKd 3.1 to 4

Chain of DLG5_1, Q8TDM6 (Q8TDM6 617-713): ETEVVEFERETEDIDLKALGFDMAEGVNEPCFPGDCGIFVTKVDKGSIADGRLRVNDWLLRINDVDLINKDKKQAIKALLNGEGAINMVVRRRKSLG

| Binder | pKd |
| --- | --- |
| HSGYRLNDYV [CLDN14, O95500] | below the threshold |
| TACCHSETVV [TGFA, P01135] | below the threshold |

The binders below were run against T2, MPP7, Q5T2T1 (assay: holdup assay). Conditions: plain residues with an end cap or a label only (N-terminal biotin on a linker: ado-ado).
Design: key: below the threshold = too weak to quantify, mostly under pKd 3.1 to 4

| Binder | pKd |
| --- | --- |
| HSGYRLNDYV [CLDN14, O95500] | below the threshold |
| TACCHSETVV [TGFA, P01135] | below the threshold |

Each binder was assayed against DLG2_3, Q15700 (assay: holdup assay). Conditions: plain residues with an end cap or a label only (N-terminal biotin on a linker: ado-ado).
Design: key: below the threshold = too weak to quantify, mostly under pKd 3.1 to 4

| Binder | pKd |
| --- | --- |
| HSGYRLNDYV [CLDN14, O95500] | below the threshold |
| TACCHSETVV [TGFA, P01135] | 4.05 |

Each binder was assayed against MAGI2_3, Q86UL8 (assay: holdup assay). Conditions: plain residues with an end cap or a label only (N-terminal biotin on a linker: ado-ado).
Design: key: below the threshold = too weak to quantify, mostly under pKd 3.1 to 4

Chain of MAGI2_3, Q86UL8 (Q86UL8 600-682): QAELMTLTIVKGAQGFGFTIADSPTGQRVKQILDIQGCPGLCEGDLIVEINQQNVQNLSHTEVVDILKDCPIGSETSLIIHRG

| Binder | pKd |
| --- | --- |
| HSGYRLNDYV [CLDN14, O95500] | below the threshold |
| TACCHSETVV [TGFA, P01135] | below the threshold |

Each binder was assayed against Inadl_5, Q8NI35 (assay: holdup assay). Conditions: plain residues with an end cap or a label only (N-terminal biotin on a linker: ado-ado).
Design: key: below the threshold = too weak to quantify, mostly under pKd 3.1 to 4

Chain of Inadl_5, Q8NI35 (Q8NI35 673-780): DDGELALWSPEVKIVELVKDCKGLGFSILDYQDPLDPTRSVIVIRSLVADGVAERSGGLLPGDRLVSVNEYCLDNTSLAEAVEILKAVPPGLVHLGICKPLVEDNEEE

| Binder | pKd |
| --- | --- |
| HSGYRLNDYV [CLDN14, O95500] | 3.48 |
| TACCHSETVV [TGFA, P01135] | 3.7 |

Each binder was assayed against T3, MPDZ_5, O75970 (assay: holdup assay). Conditions: plain residues with an end cap or a label only (N-terminal biotin on a linker: ado-ado).
Design: key: below the threshold = too weak to quantify, mostly under pKd 3.1 to 4

| Binder | pKd |
| --- | --- |
| HSGYRLNDYV [CLDN14, O95500] | below the threshold |
| TACCHSETVV [TGFA, P01135] | below the threshold |

These binders were tested against T4, LRRC7, Q96NW7 (assay: holdup assay). Conditions: plain residues with an end cap or a label only (N-terminal biotin on a linker: ado-ado).
Design: key: below the threshold = too weak to quantify, mostly under pKd 3.1 to 4

| Binder | pKd |
| --- | --- |
| HSGYRLNDYV [CLDN14, O95500] | below the threshold |
| TACCHSETVV [TGFA, P01135] | below the threshold |

The binders below were run against T5, NHERF3_3, Q5T2W1 (assay: holdup assay). Conditions: plain residues with an end cap or a label only (N-terminal biotin on a linker: ado-ado).
Design: key: below the threshold = too weak to quantify, mostly under pKd 3.1 to 4

| Binder | pKd |
| --- | --- |
| HSGYRLNDYV [CLDN14, O95500] | below the threshold |
| TACCHSETVV [TGFA, P01135] | below the threshold |

What follows are binders tested against DLG1_2, Q12959 (assay: holdup assay). Conditions: plain residues with an end cap or a label only (N-terminal biotin on a linker: ado-ado).
Design: key: below the threshold = too weak to quantify, mostly under pKd 3.1 to 4

Chain of DLG1_2, Q12959 (Q12959 314-412): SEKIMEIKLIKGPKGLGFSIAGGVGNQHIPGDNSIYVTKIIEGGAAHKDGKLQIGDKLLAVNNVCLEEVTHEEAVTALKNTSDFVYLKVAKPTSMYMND

| Binder | pKd |
| --- | --- |
| HSGYRLNDYV [CLDN14, O95500] | 3.77 |
| TACCHSETVV [TGFA, P01135] | 4.89 |

Each binder was assayed against MAGI2_4, Q86UL8 (assay: holdup assay). Conditions: plain residues with an end cap or a label only (N-terminal biotin on a linker: ado-ado).
Design: key: below the threshold = too weak to quantify, mostly under pKd 3.1 to 4

Chain of MAGI2_4, Q86UL8 (Q86UL8 772-865): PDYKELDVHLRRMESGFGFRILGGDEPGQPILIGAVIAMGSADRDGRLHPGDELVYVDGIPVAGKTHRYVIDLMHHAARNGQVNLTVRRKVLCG

| Binder | pKd |
| --- | --- |
| HSGYRLNDYV [CLDN14, O95500] | 3.94 |
| TACCHSETVV [TGFA, P01135] | 4.4 |

The binders below were run against T6, PCLO, Q9Y6V0 (assay: holdup assay). Conditions: plain residues with an end cap or a label only (N-terminal biotin on a linker: ado-ado).
Design: key: below the threshold = too weak to quantify, mostly under pKd 3.1 to 4

| Binder | pKd |
| --- | --- |
| HSGYRLNDYV [CLDN14, O95500] | below the threshold |
| TACCHSETVV [TGFA, P01135] | below the threshold |

Each binder was assayed against MAST1, Q9Y2H9 (assay: holdup assay). Conditions: plain residues with an end cap or a label only (N-terminal biotin on a linker: ado-ado).
Design: key: below the threshold = too weak to quantify, mostly under pKd 3.1 to 4

Chain of MAST1, Q9Y2H9 (Q9Y2H9 962-1065): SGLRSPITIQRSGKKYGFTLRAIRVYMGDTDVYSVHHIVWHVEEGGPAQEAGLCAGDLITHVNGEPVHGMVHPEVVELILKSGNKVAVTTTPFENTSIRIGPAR

| Binder | pKd |
| --- | --- |
| HSGYRLNDYV [CLDN14, O95500] | below the threshold |
| TACCHSETVV [TGFA, P01135] | 3.9 |

These binders were tested against T7, NHERF3_4, Q5T2W1 (assay: holdup assay). Conditions: plain residues with an end cap or a label only (N-terminal biotin on a linker: ado-ado).
Design: key: below the threshold = too weak to quantify, mostly under pKd 3.1 to 4

| Binder | pKd |
| --- | --- |
| HSGYRLNDYV [CLDN14, O95500] | below the threshold |
| TACCHSETVV [TGFA, P01135] | below the threshold |

Each binder was assayed against DLG2_2, Q15700 (assay: holdup assay). Conditions: plain residues with an end cap or a label only (N-terminal biotin on a linker: ado-ado).
Design: key: below the threshold = too weak to quantify, mostly under pKd 3.1 to 4

| Binder | pKd |
| --- | --- |
| HSGYRLNDYV [CLDN14, O95500] | below the threshold |
| TACCHSETVV [TGFA, P01135] | 4.76 |

What follows are binders tested against LIMK2, P53671 (assay: holdup assay). Conditions: plain residues with an end cap or a label only (N-terminal biotin on a linker: ado-ado).
Design: key: below the threshold = too weak to quantify, mostly under pKd 3.1 to 4

Chain of LIMK2, P53671 (P53671 143-248): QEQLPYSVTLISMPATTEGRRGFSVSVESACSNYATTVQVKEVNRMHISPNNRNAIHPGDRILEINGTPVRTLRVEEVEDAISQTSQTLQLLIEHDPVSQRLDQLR

| Binder | pKd |
| --- | --- |
| HSGYRLNDYV [CLDN14, O95500] | below the threshold |
| TACCHSETVV [TGFA, P01135] | below the threshold |

What follows are binders tested against T8, TX1BP3, O14907 (assay: holdup assay). Conditions: plain residues with an end cap or a label only (N-terminal biotin on a linker: ado-ado).
Design: key: below the threshold = too weak to quantify, mostly under pKd 3.1 to 4

| Binder | pKd |
| --- | --- |
| HSGYRLNDYV [CLDN14, O95500] | 4.24 |
| TACCHSETVV [TGFA, P01135] | 3.82 |

These binders were tested against T9, SNTA1, Q13424 (assay: holdup assay). Conditions: plain residues with an end cap or a label only (N-terminal biotin on a linker: ado-ado).
Design: key: below the threshold = too weak to quantify, mostly under pKd 3.1 to 4

| Binder | pKd |
| --- | --- |
| HSGYRLNDYV [CLDN14, O95500] | below the threshold |
| TACCHSETVV [TGFA, P01135] | 5.04 |

What follows are binders tested against T10, GRIP1_3, Q9Y3R0 (assay: holdup assay). Conditions: plain residues with an end cap or a label only (N-terminal biotin on a linker: ado-ado).
Design: key: below the threshold = too weak to quantify, mostly under pKd 3.1 to 4

| Binder | pKd |
| --- | --- |
| HSGYRLNDYV [CLDN14, O95500] | below the threshold |
| TACCHSETVV [TGFA, P01135] | below the threshold |

These binders were tested against PDZRN4_1, Q6ZMN7 (assay: holdup assay). Conditions: plain residues with an end cap or a label only (N-terminal biotin on a linker: ado-ado).
Design: key: below the threshold = too weak to quantify, mostly under pKd 3.1 to 4

Chain of PDZRN4_1, Q6ZMN7 (Q6ZMN7 213-318): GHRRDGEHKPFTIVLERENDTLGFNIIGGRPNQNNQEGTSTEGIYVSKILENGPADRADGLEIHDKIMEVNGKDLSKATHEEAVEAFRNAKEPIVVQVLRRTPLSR

| Binder | pKd |
| --- | --- |
| HSGYRLNDYV [CLDN14, O95500] | below the threshold |
| TACCHSETVV [TGFA, P01135] | 3.67 |

These binders were tested against T11, GRIP1_7, Q9Y3R0 (assay: holdup assay). Conditions: plain residues with an end cap or a label only (N-terminal biotin on a linker: ado-ado).
Design: key: below the threshold = too weak to quantify, mostly under pKd 3.1 to 4

| Binder | pKd |
| --- | --- |
| HSGYRLNDYV [CLDN14, O95500] | below the threshold |
| TACCHSETVV [TGFA, P01135] | below the threshold |

Each binder was assayed against T12, RHPN1, Q8TCX5 (assay: holdup assay). Conditions: plain residues with an end cap or a label only (N-terminal biotin on a linker: ado-ado).
Design: key: below the threshold = too weak to quantify, mostly under pKd 3.1 to 4

| Binder | pKd |
| --- | --- |
| HSGYRLNDYV [CLDN14, O95500] | below the threshold |
| TACCHSETVV [TGFA, P01135] | 4.24 |

Each binder was assayed against HTRA1, Q92743 (assay: holdup assay). Conditions: plain residues with an end cap or a label only (N-terminal biotin on a linker: ado-ado).
Design: key: below the threshold = too weak to quantify, mostly under pKd 3.1 to 4

Chain of HTRA1, Q92743 (Q92743 360-477): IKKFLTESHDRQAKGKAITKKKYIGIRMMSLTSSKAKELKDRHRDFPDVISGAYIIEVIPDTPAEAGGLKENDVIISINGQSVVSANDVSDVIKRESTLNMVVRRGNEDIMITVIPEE

| Binder | pKd |
| --- | --- |
| HSGYRLNDYV [CLDN14, O95500] | 4.34 |
| TACCHSETVV [TGFA, P01135] | 4.62 |

The binders below were run against GRIP2_7, Q9C0E4 (assay: holdup assay). Conditions: plain residues with an end cap or a label only (N-terminal biotin on a linker: ado-ado).
Design: key: below the threshold = too weak to quantify, mostly under pKd 3.1 to 4

Chain of GRIP2_7, Q9C0E4 (Q9C0E4 934-1023): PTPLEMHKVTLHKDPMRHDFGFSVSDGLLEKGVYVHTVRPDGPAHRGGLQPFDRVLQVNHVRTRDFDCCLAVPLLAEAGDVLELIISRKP

| Binder | pKd |
| --- | --- |
| HSGYRLNDYV [CLDN14, O95500] | below the threshold |
| TACCHSETVV [TGFA, P01135] | below the threshold |
